The values that follow come from article PMC3285539 (Nature, 2012).

One test addresses T1, Rpn5 (recombinant lid) (S. cerevisiae, UniProt Q12250 1-445).
T1 sequence: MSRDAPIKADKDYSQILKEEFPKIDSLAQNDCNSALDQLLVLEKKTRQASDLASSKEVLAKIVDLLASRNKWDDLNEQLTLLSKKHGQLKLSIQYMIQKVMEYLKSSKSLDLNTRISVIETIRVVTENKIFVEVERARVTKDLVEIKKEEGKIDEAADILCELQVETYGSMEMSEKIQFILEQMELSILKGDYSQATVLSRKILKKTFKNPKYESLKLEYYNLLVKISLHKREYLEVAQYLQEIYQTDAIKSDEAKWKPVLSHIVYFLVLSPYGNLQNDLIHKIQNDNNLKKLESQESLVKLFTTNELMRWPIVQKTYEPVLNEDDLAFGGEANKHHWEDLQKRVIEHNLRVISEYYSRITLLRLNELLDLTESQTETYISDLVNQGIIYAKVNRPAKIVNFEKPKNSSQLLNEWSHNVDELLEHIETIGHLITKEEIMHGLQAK
In words: negative-stain electron microscopy, 3D reconstruction.

The target of a further test is T2, Rpn8 (recombinant lid) (S. cerevisiae, UniProt Q08723 1-338).
T2 sequence: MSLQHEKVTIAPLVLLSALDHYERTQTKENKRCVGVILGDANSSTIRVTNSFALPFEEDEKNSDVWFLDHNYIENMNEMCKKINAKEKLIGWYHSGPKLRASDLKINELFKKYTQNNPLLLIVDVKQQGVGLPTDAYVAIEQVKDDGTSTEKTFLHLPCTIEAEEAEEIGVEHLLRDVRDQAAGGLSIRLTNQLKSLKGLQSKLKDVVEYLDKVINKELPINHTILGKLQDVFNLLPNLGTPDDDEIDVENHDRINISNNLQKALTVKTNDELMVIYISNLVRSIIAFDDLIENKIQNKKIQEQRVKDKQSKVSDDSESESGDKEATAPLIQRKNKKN
The description is as above.

In the next test the target is T3, Rpn1 (S. cerevisiae, UniProt P38764 1-993).
T3 sequence: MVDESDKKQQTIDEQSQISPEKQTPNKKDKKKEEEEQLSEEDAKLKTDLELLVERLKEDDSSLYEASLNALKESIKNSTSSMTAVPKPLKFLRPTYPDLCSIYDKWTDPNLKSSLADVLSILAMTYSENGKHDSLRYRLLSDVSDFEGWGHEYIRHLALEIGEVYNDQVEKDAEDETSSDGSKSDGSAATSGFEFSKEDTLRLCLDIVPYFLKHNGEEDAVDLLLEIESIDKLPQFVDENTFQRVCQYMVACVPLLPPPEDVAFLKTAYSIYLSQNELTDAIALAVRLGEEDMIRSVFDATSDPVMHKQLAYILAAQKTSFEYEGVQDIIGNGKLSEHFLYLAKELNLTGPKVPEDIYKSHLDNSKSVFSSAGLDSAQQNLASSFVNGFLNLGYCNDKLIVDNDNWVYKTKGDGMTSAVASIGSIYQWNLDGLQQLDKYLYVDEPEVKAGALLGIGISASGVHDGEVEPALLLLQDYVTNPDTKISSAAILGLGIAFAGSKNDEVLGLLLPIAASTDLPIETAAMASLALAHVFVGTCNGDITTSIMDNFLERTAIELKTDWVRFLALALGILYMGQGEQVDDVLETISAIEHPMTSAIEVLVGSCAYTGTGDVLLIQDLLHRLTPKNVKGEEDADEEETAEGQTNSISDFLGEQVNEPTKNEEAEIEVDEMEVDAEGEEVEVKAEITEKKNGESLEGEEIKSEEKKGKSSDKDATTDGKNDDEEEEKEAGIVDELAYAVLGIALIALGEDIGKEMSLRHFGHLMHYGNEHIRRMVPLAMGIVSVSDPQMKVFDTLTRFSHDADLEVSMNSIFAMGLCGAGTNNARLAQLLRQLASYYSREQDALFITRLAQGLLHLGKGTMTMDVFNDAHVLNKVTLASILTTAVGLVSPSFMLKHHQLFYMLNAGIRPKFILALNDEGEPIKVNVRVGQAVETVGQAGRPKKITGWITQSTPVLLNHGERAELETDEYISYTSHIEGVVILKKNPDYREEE
In words: cryo-EM structure.

For another test, the target named is Rpt2 (S. cerevisiae, UniProt P40327 1-437). In words: cryo-EM structure.
Rpt2, sequence (P40327 whole entry): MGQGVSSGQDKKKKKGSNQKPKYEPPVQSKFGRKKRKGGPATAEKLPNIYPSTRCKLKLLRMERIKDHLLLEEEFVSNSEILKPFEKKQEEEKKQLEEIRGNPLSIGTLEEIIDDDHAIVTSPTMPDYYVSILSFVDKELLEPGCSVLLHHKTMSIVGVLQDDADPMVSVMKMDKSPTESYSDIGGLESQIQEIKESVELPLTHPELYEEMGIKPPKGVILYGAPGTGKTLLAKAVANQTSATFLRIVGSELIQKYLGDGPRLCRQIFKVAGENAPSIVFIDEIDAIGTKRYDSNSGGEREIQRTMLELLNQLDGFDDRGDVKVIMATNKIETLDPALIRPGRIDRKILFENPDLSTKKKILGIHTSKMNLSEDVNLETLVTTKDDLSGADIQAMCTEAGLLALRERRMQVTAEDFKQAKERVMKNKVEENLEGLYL

B1: Rpn11-6xHis (recombinant lid) (enzyme)
chain: MERLQRLMMNSKVGSADTGRDDTKETVYISSIALLKMLKHGRAGVPMEVMGLMLGEFVDDYTVNVVDVFAMPQSGTGVSVEAVDDVFQAKMMDMLKQTGRDQMVVGWYHSHPGFGCWLSSVDVNTQKSFEQLNSRAVAVVVDPIQSVKGKVVIDAFRLIDTGALINNLEPRQTTSNTGLLNKANIQALIHGLNRHYYSLNIDYHKTAKETKMLMNLHKEQWQSGLKMYDYEEKEESNLAATKSMVKIAEQYSKRIEEEKELTEEELKTRYVGRQDPKKHLSETADETLENNIVSVLTAGVNSVAIK
As to B1, the binding result with Rpn5 (recombinant lid) and with Rpn8 (recombinant lid) was “binds” throughout.

B2: 20S core subunit α4 (natural protein)
chain: MSGYDRALSIFSPDGHIFQVEYALEAVKRGTCAVGVKGKNCVVLGCERRSTLKLQDTRITPSKVSKIDSHVVLSFSGLNADSRILIEKARVEAQSHRLTLEDPVTVEYLTRYVAGVQQRYTQSGGVRPFGVSTLIAGFDPRDDEPKLYQTEPSGIYSSWSAQTIGRNSKTVREFLEKNYDRKEPPATVEECVKLTVRSLLEVVQTGAKNIEITVVKPDSDIVALSSEEINQYVTQIEQEKQEQQEQDKKKKSNH
Consider B2, for which the binding result with Rpn1 and with Rpt2 was “binds” each time.
